Experimental data reported in publication PMC9715652, “Structural insights into mechanism and specificity of the plant protein O-fucosyltransferase SPINDLY” (Nature Communications, 2022).
Residue numbers refer to the chain shown, from its start. In names and notes the source's numbering stands.

B1: SPINDLY (SPY): S21A (protein)
parent chain: MVGLEDDTERERSPVVENGFSNGSRSSSSSAGVLSPSRKVTQGNDTLSYANILRARNKFADALALYEAMLEKDSKNVEAHIGKGICLQTQNKGNLAFDCFSEAIRLDPHNACALTHCGILHKEEGRLVEAAESYQKALMADASYKPAAECLAIVLTDLGTSLKLAGNTQEGIQKYYEALKIDPHYAPAYYNLGVVYSEMMQYDNALSCYEKAALERPMYAEAYCNMGVIYKNRGDLEMAITCYERCLAVSPNFEIAKNNMAIALTDLGTKVKLEGDVTQGVAYYKKALYYNWHYADAMYNLGVAYGEMLKFDMAIVFYELAFHFNPHCAEACNNLGVLYKDRDNLDKAVECYQMALSIKPNFAQSLNNLGVVYTVQGKMDAAASMIEKAILANPTYAEAFNNLGVLYRDAGNITMAIDAYEECLKIDPDSRNAGQNRLLAMNYINEGLDDKLFEAHRDWGWRFTRLHPQYTSWDNLKDPERPITIGYISPDFFTHSVSYFIEAPLTHHDYTKYKVVVYSAVVKADAKTYRFRDKVLKKGGVWKDIYGIDEKKIASMVREDKIDILVELTGHTANNKLGTMACRPAPVQVTWIGYPNTTGLPTVDYRITDSLADPPDTKQKQVEELVRLPDCFLCYTPSPEAGPVCPTPALSNGFVTFGSFNNLAKITPKVLQVWARILCAVPNSRLVVKCKPFCCDSIRQRFLTTLEQLGLESKRVDLLPLILFNHDHMQAYSLMDISLDTFPYAGTTTTCESLYMGVPCVTMAGSVHAHNVGVSLLTKVGLGHLVAKNEDEYVQLSVDLASDVTALSKLRMSLRDLMAGSPVCNGPSFAVGLESAYRNMWKKYCKGEVPSLRRMEMLQKEVHDDPLISKDLGPSRVSVTGEATPSLKANGSAPVPSSLPTQSPQLSKRMDSTS
B2: engineered Arabidopsis SPY^C645S (enzyme, Arabidopsis thaliana, UniProt Q96301 1-914, looked up)
chain: B1 parent chain with C645S
notes: SPINDLY (SPY), Arabidopsis thaliana, At3g11540, full-length with C645S; Crystallised with GDP; residues 848-914 and most of 1-43 are invisible in the structure; also called SPY (in the SPY/GDP complex structure); catalytic SPY; not shown: His6, N-terminal, cleaved; SUMO, N-terminal, cleaved
B3: SPINDLY (SPY): S24A (protein)
parent chain: B1 parent chain
B4: Arabidopsis SPINDLY (SPY), wild type, full-length (enzyme, Arabidopsis thaliana, UniProt Q96301 1-914, looked up)
chain: B1 parent chain
notes: Dimer in solution by SEC-MALS; also called wild type SPY; SPY^WT; not shown: His6, N-terminal, cleaved; SUMO, N-terminal, cleaved
B5: self-fucosylated SPY (enzyme, Arabidopsis thaliana, UniProt Q96301 1-914, looked up)
chain: B1 parent chain
modifications: O-fucose by self-fucosylation (major sites S21 and S24 by the paper's mutagenesis)
notes: SPINDLY (SPY), Arabidopsis thaliana, At3g11540, self-fucosylated sample run on gel filtration; Fucosylation of the sample was checked by western blotting with biotinylated AAL; also called SPY with fucosylation modification; source: E. coli BL21 (DE3), purified; self-fucosylated sample; not shown: His6, N-terminal, cleaved; SUMO, N-terminal, cleaved
B6: SPINDLY (SPY): self-fucosylated SPY (protein)
parent chain: B1 parent chain

How the values were obtained:
[1] = in vitro fucosylation of DELLA1–205, AAL lectin blot; conditions: glycan lost; control: wild type SPY
[2] = biological target: the molecule itself; experiment: SEC-MALS; ~500 μg loaded on Superdex 200 increase 10/300 connected to a HELEOS multi-angle light scattering instrument; 20 mM Tris pH 7.9, 300 mM NaCl, 0.5 mM TCEP
[3] = biological target: the molecule itself; experiment: SEC; Superdex 200 Increase 10/300 GL, 0.5 mL injected; 50 mM Tris pH 7.9, 300 mM NaCl, 0.5 mM TCEP, 2 mM benzamidine; samples incubated at 4 °C for 6 h; peak fractions on SDS-PAGE
gel filtration = conditions: glycan gained; control: wild type unmodified SPY

Protein	enzymatic_activity [1]	stoichiometry N [2]	further results
B1	no change		
B2		2	
B3	no change		
B4		2	
B5			stoichiometry N [3]: 2
B6			oligomerisation (gel filtration): no change
